Assay results taken from patent publication US11708423B2, “Chimeric engulfment receptor molecules and methods of use” (CERO THERAPEUTICS, INC., priority 2017, dated 2023).

B1: CER122: Tim4 binding and transmembrane domains, TLR2 primary and DAP12 secondary signaling domains; SEQ ID NO:149 (protein)
chain: MSKGLLLLWLVTELWWLYLTPAASEDTIIGFLGQPVTLPCHYLSWSQSRNSMCWGKGSCPNSKCNAELLRTDGTRIISRKSTKYTLLGKVQFGEVSLTISNTNRGDSGVYCCRIEVPGWFNDVKKNVRLELRRATTTKKPTTTTRPTTTPYVTTTTPELLPTTVMTTSVLPTTTPPQTLATTAFSTAVTTCPSTTPGSFSQETTKGSAFTTESETLPASNHSQRSMMTISTDIAVLRPTGSNPGILPSTSQLTTQKTTLTTSESLQKTTKSHQINSRQTILIIACCVGFVLMVLLFLAFLHRFHGLWYMKMMWAWLQAKRKPRKAPSRNICYDAFVSYSERDAYWVENLMVQELENFNPPFKLCLHKRDFIPGKWIIDNIIDSIEKSHKTVFVLSENFVKSEWCKYELDFSHFRLFDENNDAAILILLEPIEKKAIPQRFCKLRKIMNTKTYLEWPMDEAQREGFWVNLRAAIKSYFLGRLVPRGRGAAEAATRKQRITETESPYQELQGQRSDVYSDLNTQRPYYK
modifications: CER122 protein
B2: CER21: Tim4 binding and transmembrane domains, TLR8 signaling domain; SEQ ID NO:88 (protein)
chain: MSKGLLLLWLVTELWWLYLTPAASEDTIIGFLGQPVTLPCHYLSWSQSRNSMCWGKGSCPNSKCNAELLRTDGTRIISRKSTKYTLLGKVQFGEVSLTISNTNRGDSGVYCCRIEVPGWFNDVKKNVRLELRRATTTKKPTTTTRPTTTPYVTTTTPELLPTTVMTTSVLPTTTPPQTLATTAFSTAVTTCPSTTPGSFSQETTKGSAFTTESETLPASNHSQRSMMTISTDIAVLRPTGSNPGILPSTSQLTTQKTTLTTSESLQKTTKSHQINSRQTILIIACCVGFVLMVLLFLAFLHHLFYWDVWFIYNVCLAKVKGYRSLSTSQTFYDAYISYDTKDASVTDWVINELRYHLEESRDKNVLLCLEERDWDPGLAIIDNLMQSINQSKKTVFVLTKKYAKSWNFKTAFYLALQRLMDENMDVIIFILLEPVLQHSQYLRLRQRICKSSILQWPDNPKAEGLFWQTLRNVVLTENDSRYNNMYVDSIKQY
modifications: CER21 chimeric engulfment receptor

Test system: HCC827 lung adenocarcinoma cells
Test: MTT viability and bright field microscopy of HCC827 cells with CER T cells and Osimeritinib
Assay type: cell-based
Details: Osimeritinib 1 nM, 48 hours, CD4+ T cells
Text: CD4+ T cells were transduced with lentiviral vectors encoding various CERs (CER21, CER108, CER104, CER129, CER27, CER120, CER122, CER123, CER124, or CER126). Mock transduced (vector only) CD4+ T cells were used as control. CER21 comprises a Tim4 binding domain, Tim4 transmembrane domain, and an engulfment signaling domain comprising a primary engulfment signaling domain comprising a TLR8 signaling domain. CER21 has a polypeptide sequence as set forth in SEQ ID NO:88. CER108 has a polypeptide sequence as set forth in SEQ ID NO:137 and comprises a Tim4 binding domain, Tim4 transmembrane domain, and an engulfment signaling domain comprising a primary engulfment signaling domain comprising a DAP12 signaling domain and a secondary engulfment signaling domain comprising a TLR8 signaling domain. CER104 has a polypeptide sequence as set forth in SEQ ID NO:133 and comprises a Tim4 binding domain, Tim4 transmembrane domain, and an engulfment signaling domain comprising a primary engulfment signaling domain comprising a TLR8 signaling domain and a secondary engulfment signaling domain comprising a DAP12 signaling domain. CER129 has a polypeptide sequence as set forth in SEQ ID NO:177 and comprises a Tim4 binding domain, Tim4 transmembrane domain, and an engulfment signaling domain comprising a primary engulfment signaling domain comprising a TLR8 signaling domain and a secondary engulfment signaling domain comprising a TRAF2 signaling domain. CER27 comprises a Tim4 binding domain, Tim4 transmembrane domain, and an engulfment signaling domain comprising a primary engulfment signaling domain comprising a TLR2 signaling domain. CER27 has a polypeptide sequence as set forth in SEQ ID NO:93. […] T cells were washed away, and the number of viable HCC827 cells was quantified using a calorimetric MTT assay. […]

Molecule	bright field microscopy of HCC827 co-culture
B1	cluster of dead HCC827 EGFR^+ cells surrounded by phagocytic CER122^+ T cells
B2	cluster of dead HCC827 EGFR^+ cells surrounded by phagocytic CER21^+ T cells
